The text below walks through data of article PMC3097154, “Antiviral activity of α-helical stapled peptides designed from the HIV-1 capsid dimerization domain” (Retrovirology, 2011).

Like-named read-outs stand apart in the source and are kept apart here.

Assay [1] deals with C-terminal domain (CTD) of HIV-1 capsid (CA), wild type (HIV-1 (strain NL4-3)). Kind of assay: ITC; dilution of CTD (ca. 250 uM) into buffer with 50 uM NYAD-203; 25 mM sodium phosphate pH 7.3, 30 C; apparent; dimer to monomers.
For assay [2] the target is unchanged. Kind of assay: ITC; dilution of CTD (ca. 250 uM) into buffer with 200 uM NYAD-203; 25 mM sodium phosphate pH 7.3, 30 C; apparent; dimer to monomers.
For assay [3] the target is unchanged. Kind of assay: ITC; dilution of CTD (ca. 250 uM in the syringe, 10 ul injections) into buffer without peptide; 25 mM sodium phosphate pH 7.3, 30 C; dimer to monomers.
The target is the same in assay [4]. Kind of assay: ITC; dilution of CTD (ca. 250 uM) into buffer with 350 uM NYAD-203; 25 mM sodium phosphate pH 7.3, 30 C; apparent; dimer to monomers. (In general: ITC needs no label: the signal is the heat of the interaction.)
Assay [5] addresses HIV-1 capsid CTD CTD (Human immunodeficiency virus 1) (UniProt O93182). The settings on record: cited from earlier work.
In assay [6] the target is HIV-1 capsid CA (Human immunodeficiency virus 1) (UniProt O93182). The following applies: cited from earlier work.
Assay [7] concerns the target C-terminal domain (CTD) of HIV-1 capsid (CA), wild type (HIV-1 (strain NL4-3)). Kind of assay: ITC; Ki worked out from the rise of the apparent dimer dissociation constant of CTD with the NYAD-203 concentration, extrapolated to low (zero) peptide concentration; pH 7.3, 30 C.
For assay [8] the target is unchanged. Kind of assay: NMR titration.
The target is the same in assay [9]. Kind of assay: ITC; Ki worked out from the rise of the apparent dimer dissociation constant of CTD with the NYAD-203 concentration, extrapolated to low (zero) peptide concentration; pH 7.3, 30 C. This is another data set of the same source.

Sequence of HIV-1 capsid CA (O93182 133-363): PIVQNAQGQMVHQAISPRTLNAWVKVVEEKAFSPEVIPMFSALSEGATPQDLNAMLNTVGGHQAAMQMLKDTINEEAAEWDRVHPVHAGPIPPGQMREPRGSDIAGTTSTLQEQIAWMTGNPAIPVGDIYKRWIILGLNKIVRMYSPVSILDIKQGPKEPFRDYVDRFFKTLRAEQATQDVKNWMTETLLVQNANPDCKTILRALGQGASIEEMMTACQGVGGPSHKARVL
Sequence of HIV-1 capsid CTD CTD (Human immunodeficiency virus 1) (O93182 278-363): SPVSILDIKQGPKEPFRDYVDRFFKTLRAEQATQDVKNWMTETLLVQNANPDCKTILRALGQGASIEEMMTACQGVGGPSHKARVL
Sequence of CAC1 peptide (O93182 307-326): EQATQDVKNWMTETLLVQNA

By Kd is commonly meant the concentration at which binding is half-saturated. Regarding “C-terminal domain (CTD) of HIV-1 capsid (CA), wild type (domain or fragment)”, in assay [1], the apparent K diss with 50 uM NYAD-203 was 31.2 µM and the apparent dH of dimer dissociation with 50 uM NYAD-203 was 9.1 kcal/mol. In addition, in [2], the apparent K diss with 200 uM NYAD-203 is 33.2 µM and the apparent dH of dimer dissociation with 200 uM NYAD-203 came to 10.8 kcal/mol. In assay [3], this substance came in with a Kd of 15.3 µM and a dH of dimer dissociation of 10.7 kcal/mol. For the same substance, in assay [4], the apparent K diss with 350 uM NYAD-203 turned out to be 40.5 µM and the apparent dH of dimer dissociation with 350 uM NYAD-203 amounted to 10.9 kcal/mol.

As for CAC1 peptide (from UniProt O93182), the Kd in [5] is 50 µM.

As for HIV-1 capsid CA (from UniProt O93182), the Kd in [6] was 18 µM.

With “NYAD-203, hydrocarbon-stapled dimer interface peptide, soluble analog of NYAD-201”, the results for the Ki in [7] and in [9] were 40 µM and 45 µM, respectively. Moreover, the Kd in [8] was below 10 µM.
